Source: patent publication US20240262926A1 (published 2024)

T1: recombinant monkey TfR (r monkey TfR: Sino Biological Inc.) (cynomolgus monkey (Macaca fascicularis), UniProt Q5RDH6 89-760 (Pongo abelii entry))
T1 construct: Bought product; also called r monkey TfR-ECD (Histag); cynomolgus monkey TfR; not shown: histidine tag attached to the N-terminus
T1 chain: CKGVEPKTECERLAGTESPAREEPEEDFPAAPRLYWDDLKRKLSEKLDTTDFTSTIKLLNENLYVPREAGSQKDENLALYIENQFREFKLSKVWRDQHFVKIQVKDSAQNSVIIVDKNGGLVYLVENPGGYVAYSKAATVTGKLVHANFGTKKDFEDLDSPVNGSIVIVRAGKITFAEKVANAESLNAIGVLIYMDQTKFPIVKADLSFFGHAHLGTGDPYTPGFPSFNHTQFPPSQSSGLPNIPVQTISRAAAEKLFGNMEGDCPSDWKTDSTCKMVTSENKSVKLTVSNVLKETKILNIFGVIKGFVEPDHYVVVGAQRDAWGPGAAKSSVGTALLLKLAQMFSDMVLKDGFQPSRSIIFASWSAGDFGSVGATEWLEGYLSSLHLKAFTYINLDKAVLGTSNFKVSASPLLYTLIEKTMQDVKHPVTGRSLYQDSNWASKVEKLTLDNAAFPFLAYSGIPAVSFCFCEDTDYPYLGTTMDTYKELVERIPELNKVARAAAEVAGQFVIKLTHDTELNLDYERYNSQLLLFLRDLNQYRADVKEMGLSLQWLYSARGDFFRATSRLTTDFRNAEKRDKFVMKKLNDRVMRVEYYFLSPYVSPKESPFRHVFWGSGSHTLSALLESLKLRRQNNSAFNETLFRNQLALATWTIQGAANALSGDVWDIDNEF

B1: hBDNF-anti-hTfR antibody 6 (other)
heavy: HSDPARRGELSVCDSISEWVTAADKKTAVDMSGGTVTVLEKVPVSKGQLKQYFYETKCNPMGYTKEGCRGIDKRHWNSQCRTTQSYVRALTMDSKKRIGWRFIRIDTSCVCTLTIKRGRGSGGGGSGGGGSGGGGSGGGGSGGGGSEVQLVQSGAEVKKPGESLKISCKGSGYSFTNYWLGWVRQMPGKGLEWMGDIYPGGDYPTYSEKFKVQVTISADKSISTAYLQWSSLKASDTAMYYCARSGNYDEVAYWGQGTLVTVSSASTKGPSVFPLAPSSKSTSGGTAALGCLVKDYFPEPVTVSWNSGALTSGVHTFPAVLQSSGLYSLSSVVTVPSSSLGTQTYICNVNHKPSNTKVDKKVEPKSCDKTHT
light: DIVMTQTPLSLSVTPGQPASISCRSSQSLVHSNGNTYLHWYLQKPGQSPQLLIYKVSNRFSGVPDRFSGSGSGTDFTLKISRVEAEDVGVYYCSQSTHVPWTFGQGTKVEIKRTVAAPSVFIFPPSDEQLKSGTASVVCLLNNFYPREAKVQWKVDNALQSGNSQESVTEQDSKDSTYSLSSTLTLSKADYEKHKVYACEVTHQGLSSPVTKSFNRGEC
notes: also called fusion protein of hBDNF and humanized anti-hTfR antibody Fab; product of pE-neo (BDNF-Fab HC-1) and pE-hygr (LC3)
B2: humanized anti-hTfR antibody No. 3 (antibody, human IgG1, kappa)
heavy: not shown
light: DIVMTQTPLSLSVTPGQPASISCRSSQSLVHSNGNTYLHWYLQKPGQSPQLLIYKVSNRFSGVPDRFSGSGSGTDFTLKISRVEAEDVGVYYCSQSTHVPWTFGQGTKVEIKRTVAAPSVFIFPPSDEQLKSGTASVVCLLNNFYPREAKVQWKVDNALQSGNSQESVTEQDSKDSTYSLSSTLTLSKADYEKHKVYACEVTHQGLSSPVTKSFNRGEC
notes: IgG1; expressed in CHO-K1, purified on Protein A

Tests used:
[1] = biological target: T1, recombinant monkey TfR (r monkey TfR: …); assay: ELISA, plate-coated recombinant TfR, detection with biotin-labeled anti-BDNF antibody and streptavidin-HRP
Description: (§1) The affinity of the hBDNF-anti-hTfR antibody fusion protein to hTfR was measured using an ELISA method. The measurement by the ELISA method was generally carried out by the following method. As human TfR, recombinant human TfR (r human TfR: Sino Biological Inc.) having the amino acid sequence of the extracellular region of hTfR, ranging from the cysteine residue at the position 89th from the N-terminal side to the phenylalanine at the C-terminus in the amino acid sequence set forth as SEQ ID NO:1, to the N-terminus of which a histidine tag was added, was used. As monkey TfR, recombinant monkey TfR (r monkey TfR: Sino Biological Inc.) having the amino acid sequence of the extracellular region of cynomolgus monkey hTfR, ranging from the cysteine residue at the position 89th from the N-terminal side to the phenylalanine at the C-terminus in the amino acid sequence set forth as SEQ ID NO:2, to the N-terminus of which a histidine tag was added, was used. The measurement was carried out on the hBDNF-anti-hTfR antibodies 3, 4 and 6 among the hBDNF-humanized anti-hTfR antibody fusion proteins obtained in Example 17.
(§2) Recombinant human and monkey TfR (Sino Biological Inc.) were each diluted to 0.5 μg/mL, and the diluted solution was then added in an amount of 100 μL to each well of a 96-well plate (Nunc Inc), followed by leaving it to stand for 1 hour. […]

[2] = biological target: T2, recombinant human TfR (r human TfR: Sino Biological Inc.) (human, UniProt P02786 89-760); assay: as above
T2 construct: Bought product; also called r human TfR-ECD (Histag); hTfR; not shown: histidine tag attached to the N-terminus
Description: as §1, §2

[3] = biological target: human TrkB (GenBank Acc. No. NP_001018074.1) expressed in CHO cells (human, UniProt Q16620 32-822); assay: cell-based or functional assay
Sequence of human TrkB (GenBank Acc. No. NP_001018074.1) expressed in CHO cells (Q16620 32-822): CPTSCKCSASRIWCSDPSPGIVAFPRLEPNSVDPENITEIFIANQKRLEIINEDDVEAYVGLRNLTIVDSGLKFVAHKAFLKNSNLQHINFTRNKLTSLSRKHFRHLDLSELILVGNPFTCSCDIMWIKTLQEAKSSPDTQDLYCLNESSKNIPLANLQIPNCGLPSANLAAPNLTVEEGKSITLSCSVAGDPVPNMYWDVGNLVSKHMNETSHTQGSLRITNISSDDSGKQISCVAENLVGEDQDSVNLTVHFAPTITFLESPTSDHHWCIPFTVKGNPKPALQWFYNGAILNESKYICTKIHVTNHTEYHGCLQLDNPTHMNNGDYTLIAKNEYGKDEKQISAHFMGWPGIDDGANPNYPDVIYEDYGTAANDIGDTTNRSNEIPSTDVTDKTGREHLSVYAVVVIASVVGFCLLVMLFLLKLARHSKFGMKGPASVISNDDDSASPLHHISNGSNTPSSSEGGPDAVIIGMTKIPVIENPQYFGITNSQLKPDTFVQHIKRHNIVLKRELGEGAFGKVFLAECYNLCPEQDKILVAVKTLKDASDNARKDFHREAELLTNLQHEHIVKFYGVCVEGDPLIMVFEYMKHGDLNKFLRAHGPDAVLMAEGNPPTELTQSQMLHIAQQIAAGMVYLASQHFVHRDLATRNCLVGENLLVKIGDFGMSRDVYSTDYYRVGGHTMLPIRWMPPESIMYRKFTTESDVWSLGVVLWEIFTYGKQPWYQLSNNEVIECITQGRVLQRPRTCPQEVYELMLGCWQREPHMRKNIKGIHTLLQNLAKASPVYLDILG

[4] = biological target: T1, recombinant monkey TfR (r monkey TfR: …); assay: ELISA on plate-coated recombinant TfR ('the present measurement method' of Example 18-2)
[5] = biological target: T2, recombinant human TfR (r human TfR: …); assay: as above
[6] = biological target: T1, recombinant monkey TfR (r monkey TfR: …); assay: BLI (Octet RED96), method of Example 7, His-tagged TfR ECD on Ni-NTA sensor
Description: (§3) Each of the antibodies (anti-hTfR antibody Nos. 1 to 14) purified above was subjected to 2-fold dilution steps with HBS-P+(10 mM HEPES containing 150 mM NaCl, 50 μM EDTA and 0.05% Surfactant P20) to prepare antibody solutions of 7 different concentrations, 0.78125 to 50 nM (0.117 to 7.5 μg/mL). These antibody solutions were used as the sample solutions. The r human and r monkey TfRs were respectively diluted with HBS-P+ to prepare 25 μg/mL solutions, which were used as r human TfR-ECD (Histag) solution and r monkey TfR-ECD (Histag) solution, respectively.
(§4) Each of the sample solutions prepared above by 2-fold dilution steps was added, 200 μL/well, to a 96-well plate, black (Greiner Bio-One Inc.). Each of the r human TfR-ECD (Histag) solution and the r monkey TfR-ECD (Histag) solutions prepared above was added, 200 μL/well, to predetermined wells. To respective wells for baseline, dissociation and washing were added HBS-P+, 200 μL/well. To wells for regeneration were added 10 mM Glycine-HCl, pH 1.7, 200 μL/well. To wells for activation was added 0.5 mM NiCl₂ solution, 200 μL/well. The plate and biosensor (Biosensor/Ni-NTA: ForteBio Inc., a division of Pall Corporation) were set in the prescribed positions of Octet RED96. […] The measurement was performed at 25 to 30° C.
(§5) The affinity of the humanized anti-hTfR antibodies obtained in Example 13 to human and monkey TfRs was measured by the method described in Example 7.

[7] = biological target: T2, recombinant human TfR (r human TfR: …); assay: as above
Description: as §3, §4, §5

EC50 [1] | EC50 [2] | BDNF activity (TrkB agonistic EC50, nmol/L) [3] | EC50 [4] | EC50 [5] | Kd [6] | koff [6] | kon [6] | Kd [7] | koff [7] | kon [7] | Binder
2300 pM | 630 pM | 0.16 nmol/L |  |  |  |  |  |  |  |  | B1
 |  |  | 250 pM | 90 pM | 1120 pM | 0.000676 s⁻¹ | 603000 M⁻¹ s⁻¹ | < 1 pM | < 1e-07 s⁻¹ | 1.19e+06 M⁻¹ s⁻¹ | B2
